Results from US20200377555A1.

Legend:
Conditions in all cases: remark: other sources report otherwise
[1] = target: UFV180499 H5 A/Hong Kong/156/97 (influenza A H5 A/Hong Kong/156/97)
[2] = target: T1, UFV5367 (influenza A H1N1 A/Brisbane/59/07), A8C8J4
[3] = target: Full length HA H1N1 A/Brisbane/59/07 (influenza A H1N1 A/Brisbane/59/07), B4URD6
[4] = target: T1, UFV5367 (influenza A H1N1 …); remark: listed apart in the source
[5] = target: T1, UFV5367 (influenza A H1N1 …); assay: ELISA, polypeptide coated, antibody titrated; average of 3 independent assays

B1: CR9114 (antibody, V domains shown)
VH: QVQLVQSGAEVKKPGSSVKVSCKSSGGTSNNYAISWVRQAPGQGLDWMGGISPIFGSTAYAQKFQGRVTISADIFSNTAYMELNSLTSEDTAVYFCARHGNYYYYSGMDVWGQGTTVTVSS
VL: SYVLTQPPAVSGTPGQRVTISCSGSDSNIGRRSVNWYQQFPGTAPKLLIYSNDQRPSVVPDRFSGSKSGTSASLAISGLQSEDEAEYYCAAWDDSLKGAVFGGGTQLTVL
- EC50 (read off the curve) [1]: 0.02 µg/mL

B2: Fab fragment of mAb CR6261 (Fab, V domains shown)
VH: EVQLVESGAEVKKPGSSVKVSCKASGGPFRSYAISWVRQAPGQGPEWMGGIIPIFGTTKYAPKFQGRVTITADDFAGTVYMELSSLRSEDTAMYYCAKHMGYQVRETMDVWGKGTTVTVSS
VL: QSVLTQPPSVSAAPGQKVTISCSGSSSNIGNDYVSWYQQLPGTAPKLLIYDNNKRPSGIPDRFSGSKSGTSATLGITGLQTGDEANYYCATWDRRPTAYVVFGGGTKLTVLG
- MW polypeptide + Fab6261 (kDa) [2]: 204 kDa

B3: CR6261 (antibody, V domains shown)
VH: EVQLVESGAEVKKPGSSVKVSCKASGGPFRSYAISWVRQAPGQGPEWMGGIIPIFGTTKYAPKFQGRVTITADDFAGTVYMELSSLRSEDTAMYYCAKHMGYQVRETMDVWGKGTTVTVSS
VL: QSVLTQPPSVSAAPGQKVTISCSGSSSNIGNDYVSWYQQLPGTAPKLLIYDNNKRPSGIPDRFSGSKSGTSATLGITGLQTGDEANYYCATWDRRPTAYVVFGGGTKLTVLG
- Kd [3]: 1.1 nM
- Kd [4]: 0.48 nM
- EC50 [5]: 0.417 nM
